Source: patent publication US20250002588A1 (DIAGONAL THERAPEUTICS, published 2025)

Biological target: ALK-1/BMPR-2 receptor pair of the PathHunter U2Os dimerization cells (DiscoverX 93-0962C3) (UniProt P37023 22-503; Q13873 27-1038)
Experiment: cell-based or functional assay

Sequence of ALK-1/BMPR-2 receptor pair of the PathHunter U2Os dimerization cells (DiscoverX 93-0962C3) (P37023 22-503, chain 1 of 2): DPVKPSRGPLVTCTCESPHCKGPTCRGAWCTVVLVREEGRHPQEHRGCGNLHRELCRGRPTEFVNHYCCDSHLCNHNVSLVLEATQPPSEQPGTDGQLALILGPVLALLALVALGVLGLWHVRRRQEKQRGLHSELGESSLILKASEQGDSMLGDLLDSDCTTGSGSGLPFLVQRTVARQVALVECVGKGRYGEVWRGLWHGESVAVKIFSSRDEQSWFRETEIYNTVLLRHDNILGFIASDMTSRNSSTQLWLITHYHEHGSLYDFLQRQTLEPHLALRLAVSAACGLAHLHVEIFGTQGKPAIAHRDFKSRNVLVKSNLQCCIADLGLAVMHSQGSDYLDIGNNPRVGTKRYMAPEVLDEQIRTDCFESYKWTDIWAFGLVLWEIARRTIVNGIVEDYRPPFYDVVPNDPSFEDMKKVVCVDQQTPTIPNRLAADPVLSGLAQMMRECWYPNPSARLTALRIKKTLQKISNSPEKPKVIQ
Sequence of ALK-1/BMPR-2 receptor pair of the PathHunter U2Os dimerization cells (DiscoverX 93-0962C3) (Q13873 27-1038, chain 2 of 2): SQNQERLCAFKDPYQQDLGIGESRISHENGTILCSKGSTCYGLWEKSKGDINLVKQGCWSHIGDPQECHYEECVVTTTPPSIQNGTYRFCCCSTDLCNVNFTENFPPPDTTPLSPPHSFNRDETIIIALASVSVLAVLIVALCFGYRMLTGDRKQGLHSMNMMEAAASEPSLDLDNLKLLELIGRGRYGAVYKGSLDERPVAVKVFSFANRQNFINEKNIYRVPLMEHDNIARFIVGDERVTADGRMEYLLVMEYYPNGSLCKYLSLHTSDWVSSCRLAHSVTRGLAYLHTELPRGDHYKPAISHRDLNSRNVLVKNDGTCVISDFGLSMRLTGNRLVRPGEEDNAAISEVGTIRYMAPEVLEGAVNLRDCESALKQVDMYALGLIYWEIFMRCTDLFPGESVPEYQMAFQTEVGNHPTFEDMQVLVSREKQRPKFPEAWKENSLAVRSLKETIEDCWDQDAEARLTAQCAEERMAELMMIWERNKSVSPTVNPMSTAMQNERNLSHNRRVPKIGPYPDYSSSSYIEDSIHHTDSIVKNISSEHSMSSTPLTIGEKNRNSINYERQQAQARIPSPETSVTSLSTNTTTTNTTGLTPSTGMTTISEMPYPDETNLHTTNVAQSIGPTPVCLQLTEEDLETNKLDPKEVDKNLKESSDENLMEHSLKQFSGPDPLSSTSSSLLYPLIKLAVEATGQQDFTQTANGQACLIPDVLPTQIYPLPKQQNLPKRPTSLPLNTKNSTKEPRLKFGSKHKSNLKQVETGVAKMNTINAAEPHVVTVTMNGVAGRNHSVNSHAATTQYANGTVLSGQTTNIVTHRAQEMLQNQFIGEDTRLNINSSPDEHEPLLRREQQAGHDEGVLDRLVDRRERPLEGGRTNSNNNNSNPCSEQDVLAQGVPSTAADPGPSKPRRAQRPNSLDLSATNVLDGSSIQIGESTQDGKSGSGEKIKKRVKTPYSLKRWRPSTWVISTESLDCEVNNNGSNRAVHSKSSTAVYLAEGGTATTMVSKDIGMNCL

| % Emax BMP9 [%] | Binder |
| --- | --- |
| 42 | DGL949 (bispecific antibody, human IgG1, lambda) heavy: EVQLLESGGGLVQPGGSLRLSCAASGFTFSDYYMNWIRQAPGKGLEWVSSISGGSTYYADSVKGRFTISRDNSENTLYLQMNSLRAEDTAVYYCARDFGVAGWFGYYGMDVWGQGTLVTVSSPLAPEVQLLESGGGLVQPGGSLRLSCAASGFTFSSYWMSWVRQAPGKGLEWVANIKQDGSEKNYVDSMRGRFTISRDNSKNTLYLQMNSLRAEDTAVYYCAREFDFWGQGTLVTVSSASTKGPSVFPLAPSSKSTSGGTAALGCLVKDYFPEPVTVSWNSGALTSGVHTFPAVLQSSGLYSLSSVVTVPSSSLGTQTYICNVNHKPSNTKVDKKVEPKSCDKTHTCPPCPAPEAAGAPSVFLFPPKPKDTLYITREPEVTCVVVDVSHEDPEVKFNWYVDGVEVHNAKTKPREEQYNSTYRVVSVLTVLHQDWLNGKEYKCKVSNKALPAPIEKTISKAKGQPREPQVYTLPPSRDELTKNQVSLTCLVKGFYPSDIAVEWESNGQPENNYKTTPPVLDSDGSFFLYSKLTVDKSRWQQGNVFSCSVMHEALHNHYTQKSLSLSPG light: not shown |
| 78 | DGL1146 (bispecific antibody, human IgG1, lambda) heavy: EVQLLESGGGLVQPGGSLRLSCAASGFTFSDYYMTWIRQAPGKGLEWVSSISGGSTYYADSRKGRFTISRDNSENTLYLQMNSLRAEDTAVYYCARDFGVAGWFGQYGMDVWGQGTLVTVSSPLAPEVQLLESGGGLVQPGGSLRLSCAASGFTFSSYAMSWVRQAPGKGLEWVANINQDGSEKNYVDSMRGRFTISRDNSKNTLYLQMNSLRAEDTAVYYCAREFDYWGQGTLVTVSSASTKGPSVFPLAPSSKSTSGGTAALGCLVKDYFPEPVTVSWNSGALTSGVHTFPAVLQSSGLYSLSSVVTVPSSSLGTQTYICNVNHKPSNTKVDKKVEPKSCDKTHTCPPCPAPEAAGAPSVFLFPPKPKDTLMISRTPEVTCVVVDVSHEDPEVKFNWYVDGVEVHNAKTKPREEQYNSTYRVVSVLTVLHQDWLNGKEYKCKVSNKALPAPIEKTISKAKGQPREPQVYTLPPSRDELTKNQVSLTCLVKGFYPSDIAVEWESNGQPENNYKTTPPVLDSDGSFFLYSKLTVDKSRWQQGNVFSCSVLHEALHSHYTQKSLSLSPG light: not shown |
